# Results: publication PMC10245680 (bioRxiv, 2023)
# B1: recombinant mouse anti-vUNG antibody (against MHV68 ORF46 / viral uracil DNA glycosylase) (antibody, V domains shown)
# VH: QVQLQQPGAELVKPGASVKMSCKASGYTFTSYWITWVKQRPGQGLEWIGDIYPGSGSTKYNEKFKSKATLTVDTSSSTAYMQLSSLTSEDSAVYYCARLDYYYAMDYWGQGTSVTVSS
# VL: DIVMTQSQKFMSTSVGDRVSVTCKASQNVGTNVAWYQQKPGQSPKALIYSASYRYSGVPDRFTGSGSGTDFTLTISNVPSEDLAEYFCQQYNNYPLTFGSGTKLEIK
# Columns and labels:
# [1] = target: viral UNG (vUNG) expressed in transfected 293 cells (Murid herpesvirus 4 (MHV68), isolate …, UniProt P88984); experiment: immunostaining of cells or tissue
# [2] = target: recombinant murine uracil DNA glycosylase (UNG) (Mus musculus, UniProt P97931); experiment: ELISA
# [3] = target: vUNG expressed in MHV68-infected 3T12 cells (Murid herpesvirus 4 (MHV68 wild type …, UniProt P88984)); experiment: flow cytometry on cells
# Sequence of recombinant murine uracil DNA glycosylase (UNG) (P97931 whole entry): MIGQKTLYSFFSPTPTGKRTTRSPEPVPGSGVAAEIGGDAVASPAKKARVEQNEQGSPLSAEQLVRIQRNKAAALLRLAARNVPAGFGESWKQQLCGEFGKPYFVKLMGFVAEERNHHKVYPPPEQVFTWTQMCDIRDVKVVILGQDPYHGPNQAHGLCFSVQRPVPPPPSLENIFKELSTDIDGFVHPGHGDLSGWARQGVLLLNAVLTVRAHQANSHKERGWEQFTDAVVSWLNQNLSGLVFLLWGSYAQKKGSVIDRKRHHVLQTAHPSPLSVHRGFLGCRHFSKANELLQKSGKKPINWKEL
binder,measurement,setting,value
B1,binding result,[1],binds
same,binding result,[2],no binding
same,binding result,[3],binds
